± gives the uncertainty stated by the source.
assay: amyloid nucleation score (Sup35N fusion, yeast selection) (log enrichment); library NNK1; higher = more nucleation; inactive = no reads after selection
How it was run: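 Plasmid inserts were Illumina-sequenced at input and output from psi-negative yeast expressing Sup35N fused to peptides of 20 random codons. The yeast were induced with 100 μM copper sulfate for 24 hours and grown 7 days at 30°C on medium lacking adenine and uracil, and sequences with under 100 input reads were excluded. Nucleation score is the DiMSum log enrichment of output over input reads, centred on the mode score of non-aggregating sequences.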

Row | Substance | amyloid nucleation score
1 | NNCANIGRIEFMPGHYDMCV | 1.11 ± 0.36
2 | NNKQYLI | 1.59 ± 0.38
3 | NNLILPGWM | -0.612 ± 0.55
4 | NNLRYPCLGRCSISFGMVCG | 0.593 ± 0.41
5 | NNLSANVSLGPGCAGGQPRA | 0.764 ± 0.61
6 | NNNESEWMRGFSLKEGPTQE | 0.111 ± 0.84
7 | NNRHGYFNFCWWKEFLVKRE | inactive
8 | NNRNQAMKVYNLVSLIEAKR | -0.218 ± 1
9 | NNTFGLGNFTDSFCNIRSEK | 0.572 ± 0.39
10 | NNTFIMLIF | 6.98 ± 0.083
11 | NNTFQIVLRFSGRHIDFNRR | 7.639 ± 0.064
12 | NNVLCSGKMGRLCVGCIMPC | -0.507 ± 1.5
13 | NNWSVQSGNFTFCSGRGLCS | 7.438 ± 0.054
14 | NPAGF | 0.558 ± 1.1
15 | NPLHGARFLIGNVFIIRNFK | 5.52 ± 0.073
16 | NPLTGAL | -0.406 ± 0.56
17 | NPTNVSVWGTRGPGCVDYWY | -0.304 ± 0.41
18 | NPWIT | 1.65 ± 0.35
19 | NQNAGELNKFPWDRWKYLYV | -1.1 ± 0.74
20 | NRDQRKGIVFTWAVVEPKLP | 0.413 ± 0.97
21 | NRECYYRPGNALNHGFFQIL | 0.479 ± 1.2
22 | NRFYL | 0.597 ± 0.4

Row | Substance | amyloid nucleation score
23 | NRKEFKCSRWHRGNWYVNAR | -0.378 ± 0.79
24 | NRTYVGWEVILPKVWNSSVY | -0.663 ± 0.61
25 | NRYGWHSPDVPLAHIS | -0.029 ± 0.87
26 | NRYRCYDCTLVGRVSYS | -0.436 ± 0.29
27 | NSAPDP | -0.948 ± 2.4
28 | NSCFQSSIYVTSYTWECSP | inactive
29 | NSCRTRLVTRGCSTVPNMWM | -0.17 ± 0.43
30 | NSDNSGWWRLLYIVESGISS | 0.019 ± 1.4
31 | NSGEEYVRVEGNCAFKSLSC | 0.416 ± 0.15
32 | NSHRNSWSYMRHYSQSLMC | 0.227 ± 0.74
33 | NSIDFVFDDGVLIRFVIKVS | inactive
34 | NSMSNF | -1.08 ± 2.4
35 | NSNLVFFRQYIYTVLYTNSF | 5.817 ± 0.048
36 | NSRAGLYVISSSYCRSMLDR | 1.48 ± 0.39
37 | NSRGAQVCDICSIRMFNCCP | 7.149 ± 0.048
38 | NSRNDLVMLILLPSSRAGRL | 0.325 ± 0.99
39 | NSTSCCVMGVSVRFMSFF | 7.498 ± 0.069
40 | NSVFVPFGKEF | -0.493 ± 0.39
41 | NTAFLAVLSNALMVGMYSLL | 0.606 ± 0.58
42 | NTCEGGKCSYKVVSFLYLKY | 0.497 ± 0.5
43 | NTCYALIMVLYRRDRGPANM | 1.55 ± 0.17
44 | NTGWDRGHGCSLMFHRVLEW | 2.67 ± 0.13

Row | Substance | amyloid nucleation score
45 | NTHILYVWSVMCGHMN | 3.35 ± 0.11
46 | NTMLQKVKCWKRRVDSSRQE | 0.093 ± 0.87
47 | NTYWVSSAS | 0.078 ± 0.64
48 | NVCPFWGYKDAW | 0.435 ± 0.22
49 | NVFLVRAYLMENVHFYDFMC | 4.54 ± 0.14
50 | NVILFNYLREILRLCYMACM | 0.758 ± 0.81
51 | NVIWVASYF | -0.914 ± 0.44
52 | NVIYFNVLVAPLHIPMLDLG | 3.75 ± 0.14
53 | NVKICDGAIIYMSSMASFEL | 4.79 ± 0.092
54 | NVMCAGYIIMGATMYKKWVM | 0.902 ± 0.29
55 | NVSDWSHVFMSMFLIMGGCN | 0.509 ± 0.66
56 | NVSSIFITQY | inactive
57 | NVSVENLGYTLSIPSSMICS | 0.319 ± 0.23
58 | NVSVVSSHMLICMGMATRNP | 1.92 ± 0.36
59 | NVTIVGS | 1.02 ± 0.46
60 | NVWLWDTKFILQTRIPS | -0.026 ± 1.7
61 | NVYWNRWAMTFWLSGDEMWF | 1.27 ± 0.42
62 | NWAKGNCYVAFRLKWRYNCG | 0.745 ± 0.74
63 | NYCFLNQDFCD | 3.61 ± 0.2
64 | NYCYSFIKYPLEPVKFLSAV | -0.239 ± 1.1
65 | NYREGVVIILNNPDYCRRER | 6.36 ± 0.091
66 | NYSYNYLVVKRENTGYSGQV | 0.917 ± 0.42

Row | Substance | amyloid nucleation score
67 | NYSYVTWNLFGQSPICSLWY | 6.103 ± 0.049
68 | NYVGWLLCASILVRYNGTLE | 1.26 ± 0.77
69 | NYVIGRVIISMYGNDVTRLP | 4.23 ± 0.095
70 | PALDAYSQKFELTCCLDTLH | inactive
71 | PCFSLLDSQRFVFGAKIILR | 0.093 ± 0.69
72 | PCLVSCHPGADAYLYDNLEV | -0.856 ± 2.4
73 | PCSVISGHLTSMSSLSLFGG | -0.299 ± 0.32
74 | PCTRHCLRLHLAFMWLILAI | -0.31 ± 0.4
75 | PCYAVYITAPINV | 5.94 ± 0.093
76 | PDCRSYLTIF | 0.486 ± 0.31
77 | PDGPANSSKDGDFCDKLR | 1.4 ± 0.6
78 | PDVVSTSLILGGLNSPELEH | 0.016 ± 0.6
79 | PFGGDFTF | 0.187 ± 0.24
80 | PFLAKVLCNVWNI | 6.8 ± 0.047
81 | PFNFIPFAYRLYRKTYRTSH | 0.165 ± 0.46
82 | PFQECFLRKVYWIIWRSRPK | 0.255 ± 1.2
83 | PFSVWSPPMMDPVHNIFWVR | -0.203 ± 0.49
84 | PFVNW | 0.432 ± 0.84
85 | PGLLMNRVPVSSTQYIYLEQ | 0.029 ± 0.75
86 | PGSANASLTERFLMKMVGED | 0.053 ± 0.78
